Experimental findings from publication PMC4072508, “Genome-Wide Prediction and Validation of Peptides That Bind Human Prosurvival Bcl-2 Proteins” (PLoS Computational Biology, 2014) are described below.

For test [1], the target named is T1, Bfl-1, Q16548.
T1 chain: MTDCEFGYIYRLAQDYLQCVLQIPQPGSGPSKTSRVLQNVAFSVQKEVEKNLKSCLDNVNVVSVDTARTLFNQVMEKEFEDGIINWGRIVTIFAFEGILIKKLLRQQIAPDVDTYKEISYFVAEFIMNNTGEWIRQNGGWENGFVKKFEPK
Briefly: peptide SPOT array, c-Myc-tagged receptor at 1 uM or 100 nM, anti-c-Myc-Cy3.

Test [2] deals with T2, Mcl-1, Q07820.
T2 chain: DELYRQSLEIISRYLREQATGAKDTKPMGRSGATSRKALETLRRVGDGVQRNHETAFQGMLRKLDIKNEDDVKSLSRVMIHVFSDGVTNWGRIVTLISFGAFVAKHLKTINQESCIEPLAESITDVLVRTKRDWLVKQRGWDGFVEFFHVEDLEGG
Described as above.

Test [3] addresses Bcl-2, P10415. The test is described as above.
Target sequence in this assay (P10415 1-217): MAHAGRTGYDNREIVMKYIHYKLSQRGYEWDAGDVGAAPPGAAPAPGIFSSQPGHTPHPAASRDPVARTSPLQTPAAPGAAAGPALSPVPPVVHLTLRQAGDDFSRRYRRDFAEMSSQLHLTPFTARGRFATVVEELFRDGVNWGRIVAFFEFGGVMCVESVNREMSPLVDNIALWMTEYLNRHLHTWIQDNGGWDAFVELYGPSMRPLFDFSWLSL
The target in test [4] is Bcl-xL, Q07817. Described as above.
Chain of Bcl-xL, Q07817 (Q07817 1-209): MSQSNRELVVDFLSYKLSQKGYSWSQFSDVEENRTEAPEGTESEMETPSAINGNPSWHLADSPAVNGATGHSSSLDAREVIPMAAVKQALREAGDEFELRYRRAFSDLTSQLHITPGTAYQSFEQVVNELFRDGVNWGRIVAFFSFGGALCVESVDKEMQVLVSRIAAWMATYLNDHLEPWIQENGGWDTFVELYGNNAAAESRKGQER
The target of test [5] is T3, Bcl-w, Q92843.
T3 chain: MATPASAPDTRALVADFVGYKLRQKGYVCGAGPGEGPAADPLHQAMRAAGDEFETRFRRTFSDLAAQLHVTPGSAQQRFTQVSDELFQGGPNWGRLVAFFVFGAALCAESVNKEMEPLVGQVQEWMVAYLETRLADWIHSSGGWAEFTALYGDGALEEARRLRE
Described as above.

Test [6] deals with T1, Bfl-1, Q16548. Kind of test: fluorescence polarisation, direct titration of receptor into 10 nM labelled peptide. In general terms: Fluorescence polarisation rises when a labelled molecule tumbles more slowly, as on binding a larger partner.
Test [7] deals with T2, Mcl-1, Q07820. The description is as above.
The target in test [8] is Bcl-xL, Q07817. The description is as above.
Test [9] has as its target T4, Bcl-2, P10415.
T4 chain: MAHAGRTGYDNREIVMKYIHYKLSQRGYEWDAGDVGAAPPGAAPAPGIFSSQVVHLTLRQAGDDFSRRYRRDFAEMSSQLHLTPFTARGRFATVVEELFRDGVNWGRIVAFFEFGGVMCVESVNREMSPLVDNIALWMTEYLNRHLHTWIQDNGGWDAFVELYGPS
Described as above.

The target in test [10] is T3, Bcl-w, Q92843. The description is as above.
In test [11] the target is PXT1 BH3-like peptide (human). Briefly: fluorescence polarisation; direct binding: 10 nM FAM-labeled peptide, receptor serially diluted; 25°C; 20 mM NaPO4, 50 mM NaCl, 1 mM EDTA, 0.001% Triton X, pH 7.8; single-site binding model.

The term Kd denotes the equilibrium constant for the complex coming apart. A higher Kd goes with lower affinity. For the molecule FERVEQMCIQIKEVGDRVNYIKRSLQ [TRPM7], the SPOT signal as a fraction of Bim BH3's signal on the same receptor and array was determined as 0.49 in test [1]; 0.44 in test [2]; 0.38 in test [3]; 0.34 in test [4]; 0.2 in test [5]. Moreover, the Kd in [6] turned out to be 1900 nM; in [7], 592 nM; in test [8], 679 nM; in [9], 124 nM; in [10] it was 2490 nM.

B1: Bcl-w (natural protein)
chain: MATPASAPDTRALVADFVGYKLRQKGYVCGAGPGEGPAADPLHQAMRAAGDEFETRFRRTFSDLAAQLHVTPGSAQQRFTQVSDELFQGGPNWGRLVAFFVFGAALCAESVNKEMEPLVGQVQEWMVAYLETQLADWIHSSGGWAEFTALYGDGALEEARRLREGNWASVRTVLTGAVALGALVTVGAFFASK
B1 registered a Kd in [11] below 30 nM.

Consider SSLSDGLPVHLANIADELTQKKKMFK [AGBL2], for which the SPOT signal as a fraction of Bim BH3's signal on the same receptor and array in [1] was determined as 0.15; in [2], 0.11; in test [3], 0.105; in [4] it was 0.25; in test [5] it was 0.74. Besides, the Kd in test [6] was above 4660 nM; in test [7], above 5020 nM; in test [8] it was above 4000 nM; in test [9] it was above 100000 nM; in test [10], 5870 nM.

For the molecule FTGNNTAVQELKRVSEQFTATFRRKA [TUBB4Q], the SPOT signal as a fraction of Bim BH3's signal on the same receptor and array is 0.8 in test [1]; 0.41 in test [2]; 0.19 in [3]; 0.93 in [4]; 0.92 in test [5]. The Kd in test [6] is above 4660 nM; in test [7], 1460 nM; in [8], 2050 nM; in [9] it was 1410 nM; in test [10], 2490 nM.

B2: Bfl-1 (natural protein)
chain: MTDCEFGYIYRLAQDYLQCVLQIPQPGSGPSKTSRVLQNVAFSVQKEVEKNLKSCLDNVNVVSVDTARTLFNQVMEKEFEDGIINWGRIVTIFAFEGILIKKLLRQQIAPDVDTYKEISYFVAEFIMNNTGEWIRQNGGWENGFVKKFEPKSGWMTFLEVTGKICEMLSLLKQYC
With B2, the Kd in [11] is below 30 nM.

Take EVLAGPLAQRLSHIAEDVGRLVKKSR [ARHGAP4]: the SPOT signal as a fraction of Bim BH3's signal on the same receptor and array turned out to be 0.4 in test [1]; 0.28 in test [2]; 0.1 in [3]; 0.4 in [4]; 0.94 in test [5]. Besides, the Kd was above 5600 nM in test [6]; above 2430 nM in test [7]; 3060 nM in [8]; 6090 nM in [9]; 749 nM in [10].

In the case of TDENKKVGLALKDLAKQYSDRLECCE [NUB1], the SPOT signal as a fraction of Bim BH3's signal on the same receptor and array is 0.02 in test [1]; 0.02 in test [2]; 0.01 in test [3]; 0.11 in test [4]; 0.02 in [5]. Further, the Kd in [6] is above 4000 nM; in test [7] it was above 10000 nM; in [8] it was 2720 nM; in test [9], 562 nM; in test [10], above 4000 nM.

Turning to EEIIHKLAMQLRHIGDNIDHRMVRED [PXT1], the SPOT signal as a fraction of Bim BH3's signal on the same receptor and array in [1] came to 0.99; in [2] it was 0.9; in [3], 0.13; in test [4] it was 0.26; in test [5], 0.99. Moreover, the Kd in test [6] is 1 nM; in [7] it was 0.9 nM; in test [8], 8 nM; in [9], 14 nM; in test [10], 5 nM.
